Laboratory results reported in PMC6033896 (Scientific Reports, 2018).

B1: recombinant Mcl-1 protein (wild type) (natural protein)
chain: EDELYRQSLEIISRYLREQATGAKDTKPMGRSGATSRKALETLRRVGDGVQRNHETAFQGMLRKLDIKNEDDVKSLSRVMIHVFSDGVTNWGRIVTLISFGAFVAKHLKTINQESCIEPLAESITDVLVRTKRDWLVKQRGWDGFVEFFHVEDLEGG
B2: recombinant Bcl-xL protein (natural protein)
chain: MSQSNRELVVDFLSYKLSQKGYSWSQFSDVEENRTEAPEGTESEVKQALREAGDEFELRYRRAFSDLTSQLHITPGTAYQSFEQVVNELFRDGVNWGRIVAFFSFGGALCVESVDKEMQVLVSRIAAWMATYLNDHLEPWIQENGGWDTFVELYGNNAAAESRKGQERFN

Target: T1, fluorescent labelled Bid BH3 peptide (fluorescent label (Flu- or FAM-), position not stated)
T1 construct: BH3 peptide derived from the pro-apoptotic protein Bid; The methods name two probes (Flu-Bid with Mcl-1); the two probes may differ in label and limits; also called Flu-Bid; FAM-Bid
Experiment: fluorescence polarisation; direct binding of the fluorescent Bid probe to recombinant protein; Ex 485 nm, Em 530 nm, room temperature; buffer of the Kd determination not told apart from the two competitive assay buffers
Details: both partners purified

Binder	Kd [nM]
B1	3 ± 0.1
B2	20 ± 2.3
